# Experimental data published in PMC12023411, “Quaternary stabilization of a GH2 β‐galactosidase from the psychrophile A. ikkensis, a flexible and unstable dimeric enzyme” (Protein Science : A Publication of the Protein Society, 2025).
# Values joined by “and” are separate entries in the source; they are usually repeats but may differ in a detail not shown here. Equal entries are not always repeated.
# Key:
# EcLac = target: T1, EcLac (Escherichia coli, UniProt P00722); assay: ONPG hydrolysis, absorbance […] nm; format: biochemical; details: PBS pH 7.0, 0.1 mM MgCl2, 5 mM ONPG, 8 nM enzyme; temperature series
# T1 construct: gene lacZ; commercial enzyme purchased from Sigma, lyophilized; homotetramer
# [1] = target: AiLac triple mutant (V648E, F702L, T742V) (Alkalilactibacillus ikkensis); assay: mass photometry; TwoMP mass photometer, 21°C; 0.25 μL of a 1 mg/mL (8.4 μM) stock added to 19.75 μL buffer, about 100 nM final
# [2] = target: AiLac triple mutant (V648E, F702L, T742V) (Alkalilactibacillus ikkensis); assay: flow-induced dispersion analysis (FIDA); 125 nM (WT) or 60 nM (TM) Alexa Fluor 488-labelled protein as indicator, pre-mixed with unlabelled protein of the same kind, 4 h at 4°C, buffer A; Rh fitted to a monomer-dimer model; constant of dimer to monomers
# [3] = target: GH2 β-galactosidase from Alkalilactibacillus ikkensis (AiLac), wild type (Alkalilactibacillus ikkensis); assay: SAXS; 0.40 mg/mL AiLac in 50 mM bis-tris propane, pH 7.0-8.0, 20°C; mass from I(0)
# [4] = target: GH2 β-galactosidase from Alkalilactibacillus ikkensis (AiLac), wild type (Alkalilactibacillus ikkensis); assay: SAXS; second peak of the SEC purification, 1.15 mg/mL, buffer A, 20°C, 1800 s; mass from I(0)
# [5] = target: GH2 β-galactosidase from Alkalilactibacillus ikkensis (AiLac), wild type (Alkalilactibacillus ikkensis); assay: SEC-MALS; Superdex 200 10/300 GL Increase, buffer A (PBS + 0.1 mM MgCl2, pH 7.0), room temperature, 0.5 mL/min, 50 μL of 1.5 mg/mL Ni-NTA purified protein loaded
# [6] = target: GH2 β-galactosidase from Alkalilactibacillus ikkensis (AiLac), wild type (Alkalilactibacillus ikkensis); assay: DSF (melting temperature against protein concentration); apparent; SEC-purified AiLac at 3.9 μg/mL to 4 mg/mL, 0.5°C/min, buffer A; tm fitted to the monomer-dimer equation (5); dimer to monomers
# [7] = target: GH2 β-galactosidase from Alkalilactibacillus ikkensis (AiLac), wild type (Alkalilactibacillus ikkensis); assay: flow-induced dispersion analysis (FIDA); 125 nM (WT) or 60 nM (TM) Alexa Fluor 488-labelled protein as indicator, pre-mixed with unlabelled protein of the same kind, 4 h at 4°C, buffer A; Rh fitted to a monomer-dimer model; constant of dimer to monomers
# [8] = target: GH2 β-galactosidase from Alkalilactibacillus ikkensis (AiLac), wild type (Alkalilactibacillus ikkensis); assay: as above; remark: listed apart in the source
# T1 sequence (P00722 whole entry): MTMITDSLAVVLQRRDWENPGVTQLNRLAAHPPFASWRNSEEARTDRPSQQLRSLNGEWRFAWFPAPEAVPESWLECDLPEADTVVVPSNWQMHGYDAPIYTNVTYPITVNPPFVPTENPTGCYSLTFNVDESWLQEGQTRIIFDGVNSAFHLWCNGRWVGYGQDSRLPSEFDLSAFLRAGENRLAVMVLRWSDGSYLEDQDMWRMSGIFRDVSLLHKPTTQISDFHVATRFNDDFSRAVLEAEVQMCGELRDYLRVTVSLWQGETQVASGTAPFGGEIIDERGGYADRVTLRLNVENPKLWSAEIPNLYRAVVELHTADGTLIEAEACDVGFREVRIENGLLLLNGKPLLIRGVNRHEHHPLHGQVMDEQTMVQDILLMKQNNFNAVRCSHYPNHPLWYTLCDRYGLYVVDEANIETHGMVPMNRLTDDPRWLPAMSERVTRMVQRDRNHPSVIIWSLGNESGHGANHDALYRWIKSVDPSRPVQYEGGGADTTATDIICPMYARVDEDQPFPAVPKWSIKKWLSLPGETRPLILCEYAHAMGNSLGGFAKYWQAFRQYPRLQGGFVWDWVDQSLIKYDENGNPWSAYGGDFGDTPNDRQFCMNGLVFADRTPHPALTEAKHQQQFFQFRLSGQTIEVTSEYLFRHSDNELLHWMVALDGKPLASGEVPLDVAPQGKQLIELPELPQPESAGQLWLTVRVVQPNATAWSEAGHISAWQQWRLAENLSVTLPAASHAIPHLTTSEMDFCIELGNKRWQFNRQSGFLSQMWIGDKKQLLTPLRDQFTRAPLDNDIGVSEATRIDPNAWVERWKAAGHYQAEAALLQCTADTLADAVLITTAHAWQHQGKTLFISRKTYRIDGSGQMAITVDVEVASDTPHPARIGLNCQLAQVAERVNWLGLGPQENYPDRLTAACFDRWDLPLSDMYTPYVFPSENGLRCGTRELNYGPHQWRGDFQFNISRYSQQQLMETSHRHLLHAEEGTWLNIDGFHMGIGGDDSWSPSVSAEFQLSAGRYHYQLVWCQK
molecule,measurement,setting,value
O=[N+]([O-])c1ccccc1O[C@@H]1O[C@H](CO)[C@H](O)[C@H](O)[C@H]1O [ONPG],specific activity,EcLac,Activity of the AiLac and EcLac (purchased from Sigma) was assessed by hydrolysis of ONPG
"AiLac triple mutant (V648E, F702L, T742V) (enzyme)",stoichiometry N,[1],4
same,stoichiometry N,[2],2 and 4
"GH2 β-galactosidase from Alkalilactibacillus ikkensis (AiLac), wild type (enzyme)",stoichiometry N,[3],2
same,stoichiometry N,[4],1.7 monomers
same,stoichiometry N,[5],4 and 2
same,Kd,[6],150 nM
same,Kd,[7],230 nM
same,stoichiometry N,[7],2
same,Kd,[8],300 nM
